Assay results as given in patent US11622990 (FUDAN UNIVERSITY, dated 2023).
Ends that are not written are not given here. Fluorescein‑5‑maleimide = reacted with thiol of C-terminal Cys

How the values were obtained:
[1] = target: T1, GRP78 on the surface of HUVEC cells; assay: confocal microscopy of HUVEC cells, 5 µM labelled peptide, 4 h, 37 °C (uptake)
T1 construct: also called GRP78 on human umbilical vein endothelial cells

[2] = target: T2, GRP78 on the surface of glioma cell U87 (UniProt P11021 19-654, limits assumed); assay: confocal microscopy of U87 cells, 5 µM labelled peptide, 4 h, 37 °C (uptake)
T2 construct: whole, on cells; also called receptor protein on the cell surface; GRP78 protein
T2 sequence (P11021 19-654 limits assumed): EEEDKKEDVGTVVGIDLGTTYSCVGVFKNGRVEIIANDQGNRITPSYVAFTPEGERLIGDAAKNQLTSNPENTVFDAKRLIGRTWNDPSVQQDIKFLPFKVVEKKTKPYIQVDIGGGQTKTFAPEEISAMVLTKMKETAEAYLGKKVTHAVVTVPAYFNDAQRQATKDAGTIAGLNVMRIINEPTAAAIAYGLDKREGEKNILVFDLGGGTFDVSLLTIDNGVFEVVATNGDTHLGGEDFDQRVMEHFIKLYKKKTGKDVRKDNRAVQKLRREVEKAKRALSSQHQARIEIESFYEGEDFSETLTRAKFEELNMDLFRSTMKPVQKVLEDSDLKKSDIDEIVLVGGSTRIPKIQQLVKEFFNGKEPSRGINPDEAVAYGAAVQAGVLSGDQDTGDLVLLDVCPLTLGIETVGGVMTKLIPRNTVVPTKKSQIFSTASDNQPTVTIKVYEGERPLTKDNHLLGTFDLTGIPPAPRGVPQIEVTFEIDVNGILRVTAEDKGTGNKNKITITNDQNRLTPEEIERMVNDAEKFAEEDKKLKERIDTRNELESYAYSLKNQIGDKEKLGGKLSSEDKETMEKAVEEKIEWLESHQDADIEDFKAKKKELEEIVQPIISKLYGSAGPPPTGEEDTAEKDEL

[3] = target: T3, Recombinant human glucose-regulated protein GRP78 (human, UniProt P11021 19-654, limits assumed); assay: SPR (Biacore T200), recombinant human GRP78 coupled to a CM5 chip, peptide injected at 0.3125-20 µM
T3 construct: also called Bip
T3 sequence (P11021 19-654 limits assumed): as above

T1 sequence (chain, as listed by the source limits assumed): as the sequence (P11021 19-654 limits assumed) above

binding result [1]	binding result [2]	Kd [3] [nM]	koff [3] [s⁻¹]	Binder
binds	binds			SNTRVAPC(Fluorescein‑5‑maleimide) (also called Fluorescein-labeled ^LVAP) [LVAP-Fluorescein]
		2700	0.019	SNTRVAP [LVAP (L-configuration peptide SNTRVAP)]
